Data set [1] has as its target T1, NnABI5 (ABA Insensitive 5) (Nelumbo nucifera, UniProt A0A1U8B646 1-478).
T1 sequence: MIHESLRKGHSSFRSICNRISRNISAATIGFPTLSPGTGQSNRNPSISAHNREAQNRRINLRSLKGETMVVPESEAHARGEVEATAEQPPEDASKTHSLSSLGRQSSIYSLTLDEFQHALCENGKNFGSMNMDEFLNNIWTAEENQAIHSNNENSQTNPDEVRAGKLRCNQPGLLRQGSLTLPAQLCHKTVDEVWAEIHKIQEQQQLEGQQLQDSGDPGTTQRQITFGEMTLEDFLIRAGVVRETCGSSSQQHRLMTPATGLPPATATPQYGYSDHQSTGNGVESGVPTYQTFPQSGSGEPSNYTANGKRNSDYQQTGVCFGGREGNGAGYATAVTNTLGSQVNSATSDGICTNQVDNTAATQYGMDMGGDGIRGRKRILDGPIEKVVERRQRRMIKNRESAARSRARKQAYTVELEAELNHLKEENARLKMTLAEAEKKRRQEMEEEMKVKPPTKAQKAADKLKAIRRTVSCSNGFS
Put plainly: EMSA; unlabelled probe weakens the shift in a dose-dependent way; Not stated; EMSA with Beyotime chemiluminescent nucleic acid detection kit. Particulars: protein: recombinant; tags: His (pCold TF vector); chain copies: 2; blunt.

Data set [2] addresses T1, NnABI5 (ABA Insensitive 5). Briefly: EMSA; Not stated; EMSA with Beyotime chemiluminescent nucleic acid detection kit. Particulars: protein: recombinant; tags: His (pCold TF vector); chain copies: 2; blunt. Background: Mobility shift assays separate free from complexed probe on a gel.

The text below walks through data of PMC12610401, “The miR395b–ABI5 module regulates amylopectin branching and biosynthesis and affects lotus root quality”.

B1: NnSS2 promoter probe (WT) (dsDNA)
DNA 1: CTTCCTCGGTTTTTCCACGTGTTTCTTCTGGAGTAT
DNA 2: ATACTCCAGAAGAAACACGTGGAAAAACCGAGGAAG
B1: the binding result in data set [1] is reported as “binds”.

B2: NnSS2 promoter mutant probe (dsDNA)
DNA 1: CTTCCTCGGTTTTTCAAAAAATTTCTTCTGGAGTAT
DNA 2: ATACTCCAGAAGAAATTTTTTGAAAAACCGAGGAAG
B2: in data set [2], the binding result is reported as “no binding”.

B3: NnSBEII promoter probe (WT) (dsDNA)
DNA 1: GTGGCAACGACTGGTCACGTGACTTACGTCACCCAT
DNA 2: ATGGGTGACGTAAGTCACGTGACCAGTCGTTGCCAC
As for B3, in data set [1], the binding result was “binds”.

B4: NnSBEII promoter mutant probe (dsDNA)
DNA 1: GTGGCAACGACTGGTAAAAAAACTTACGTCACCCAT
DNA 2: ATGGGTGACGTAAGTTTTTTTACCAGTCGTTGCCAC
Regarding B4, the binding result in data set [2] is on record as “no binding”.
